Where a chain is given by its changes, count along the chain named. Numbers in names are those of the source.
T1: thermostable variant of Streptomyces mobaraensis transglutaminase (Streptomyces mobaraensis, UniProt P81453 79-407)
T1 sequence: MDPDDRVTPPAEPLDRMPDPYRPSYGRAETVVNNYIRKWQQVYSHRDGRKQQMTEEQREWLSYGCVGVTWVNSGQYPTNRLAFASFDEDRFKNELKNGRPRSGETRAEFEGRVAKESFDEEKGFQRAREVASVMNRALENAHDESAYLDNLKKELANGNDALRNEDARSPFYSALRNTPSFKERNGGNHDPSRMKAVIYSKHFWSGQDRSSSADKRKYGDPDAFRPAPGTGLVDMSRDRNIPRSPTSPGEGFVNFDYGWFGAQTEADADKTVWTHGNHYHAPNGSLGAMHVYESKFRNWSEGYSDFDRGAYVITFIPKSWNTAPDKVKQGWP

B1: pro-peptide variant D2P (peptide)
peptide: MPNGAGEETKSYAETYRLTADDVANINALNESAPAASSAGPSFRAP
B2: pro-peptide variant E8C (peptide)
peptide: B1 peptide with P2D, E8C
B3: pro-peptide variant E7V (peptide)
peptide: B1 peptide with P2D, E7V
B4: pro-peptide variant E7T (peptide)
peptide: B1 peptide with P2D, E7T
B5: pro-peptide variant E8N (peptide)
peptide: B1 peptide with P2D, E8N
B6: pro-peptide variant E8T (peptide)
peptide: B1 peptide with P2D, E8T
B7: pro-peptide variant L18I (peptide)
peptide: B1 peptide with P2D, L18I
B8: pro-peptide variant S38H (peptide)
peptide: B1 peptide with P2D, S38H
B9: pro-peptide variant S38T (peptide)
peptide: B1 peptide with P2D, S38T
B10: pro-peptide variant D22A (peptide)
peptide: B1 peptide with P2D, D22A
B11: pro-peptide variant D21M (peptide)
peptide: B1 peptide with P2D, D21M
B12: pro-peptide variant T9K (peptide)
peptide: B1 peptide with P2D, T9K
B13: pro-peptide variant A24V (peptide)
peptide: B1 peptide with P2D, A24V
B14: pro-peptide variant E14S (peptide)
peptide: B1 peptide with P2D, E14S
B15: pro-peptide variant T9W (peptide)
peptide: B1 peptide with P2D, T9W
B16: pro-peptide variant D2Q (peptide)
peptide: B1 peptide with P2Q
B17: pro-peptide variant D21S (peptide)
peptide: B1 peptide with P2D, D21S
B18: pro-peptide variant E7C (peptide)
peptide: B1 peptide with P2D, E7C
B19: pro-peptide variant T9V (peptide)
peptide: B1 peptide with P2D, T9V
B20: pro-peptide variant T15D (peptide)
peptide: B1 peptide with P2D, T15D
B21: pro-peptide variant D21C (peptide)
peptide: B1 peptide with P2D, D21C
B22: pro-peptide variant T9R (peptide)
peptide: B1 peptide with P2D, T9R
B23: pro-peptide variant T15V (peptide)
peptide: B1 peptide with P2D, T15V
B24: pro-peptide variant E7L (peptide)
peptide: B1 peptide with P2D, E7L
B25: pro-peptide variant D2T (peptide)
peptide: B1 peptide with P2T
B26: pro-peptide variant T9Y (peptide)
peptide: B1 peptide with P2D, T9Y
B27: pro-peptide variant T9G (peptide)
peptide: B1 peptide with P2D, T9G
B28: pro-peptide variant D21F (peptide)
peptide: B1 peptide with P2D, D21F
B29: pro-peptide variant D2S (peptide)
peptide: B1 peptide with P2S
B30: pro-peptide variant T9L (peptide)
peptide: B1 peptide with P2D, T9L
B31: pro-peptide variant S38F (peptide)
peptide: B1 peptide with P2D, S38F
B32: pro-peptide variant D21V (peptide)
peptide: B1 peptide with P2D, D21V
B33: pro-peptide variant T9A (peptide)
peptide: B1 peptide with P2D, T9A
B34: pro-peptide variant E14Q (peptide)
peptide: B1 peptide with P2D, E14Q
B35: pro-peptide variant E7S (peptide)
peptide: B1 peptide with P2D, E7S
B36: pro-peptide variant E8L (peptide)
peptide: B1 peptide with P2D, E8L
B37: pro-peptide variant T9H (peptide)
peptide: B1 peptide with P2D, T9H
B38: pro-peptide variant E8Q (peptide)
peptide: B1 peptide with P2D, E8Q
B39: pro-peptide variant E8R (peptide)
peptide: B1 peptide with P2D, E8R
B40: pro-peptide truncation variant ΔP46 (peptide)
peptide: MDNGAGEETKSYAETYRLTADDVANINALNESAPAASSAGPSFRA

Key:
[1] = biological target: T1, thermostable variant of Streptomyces …; assay: cell-based or functional assay
[2] = biological target: T1, thermostable variant of Streptomyces …; assay: cell-based or functional assay; remark: listed apart in the source

Row | Binder | Improvement in pH responsiveness of inhibitory peptide relative to WT [1] [fold] | Improvement in binding affinity of inhibitory peptide relative to WT [2] [fold]
1 | B1 | > 5 | > 1.2
2 | B2 | > 1.2 | > 1.2
3 | B3 | > 5 | > 1.2
4 | B4 | > 1.2 | > 1.2
5 | B5 | > 1.2 | > 1.2
6 | B6 | > 1.2 | > 1.2
7 | B7 | > 1.2 | > 1.2
8 | B8 | > 1.2 | > 1.2
9 | B9 | > 1.2 | > 1.2
10 | B10 | > 1.2 | > 1.2
11 | B11 | > 5 | > 1.2
12 | B12 | > 1.2 | > 1.2
13 | B13 | > 5 | > 1.2
14 | B14 | > 5 | > 1.2
15 | B15 | > 1.2 | > 1.2
16 | B16 | > 1.2 | > 1.2
17 | B17 | > 1.2 | > 1.2
18 | B18 | > 1.2 | > 1.2
19 | B19 | > 1.2 | > 1.2
20 | B20 | > 1.2 | > 1.2

Row | Binder | Improvement in pH responsiveness of inhibitory peptide relative to WT [1] [fold] | Improvement in binding affinity of inhibitory peptide relative to WT [2] [fold]
21 | B21 | > 1.2 | > 1.2
22 | B22 | > 1.2 | > 1.2
23 | B23 | > 1.2 | > 1.2
24 | B24 | > 1.2 | > 1.2
25 | B25 | > 1.2 | > 1.2
26 | B26 | > 1.2 | > 1.2
27 | B27 | > 1.2 | > 1.2
28 | B28 | > 1.2 | > 1.2
29 | B29 | > 1.2 | > 1.2
30 | B30 | > 1.2 | > 1.2
31 | B31 | > 1.2 | > 1.2
32 | B32 | > 1.2 | > 1.2
33 | B33 | > 1.2 | > 1.2
34 | B34 | > 1.2 | > 1.2
35 | B35 | > 5 | > 1.2
36 | B36 | > 1.2 | > 1.2
37 | B37 | > 1.2 | > 1.2
38 | B38 | > 5 | > 1.2
39 | B39 | > 1.2 | > 1.2
40 | B40 | > 1.2 | > 1.2

Reference: patent publication US20250304927A1, “PRO-PEPTIDE VARIANTS FOR MODULATING ACTIVITY OF TRANSGLUTAMINASES” (CURIE CO. INC., priority 2022, published 2025)
